Reference: paper PMC10833561
Like-named read-outs stand apart in the source and are kept apart here.

Row | Substance | expression_or_secretion (N-glycosylation at N202) | other (N-glycosylation at N202) | expression_or_secretion (N-glycosylation at N171) | other (N-glycosylation at N171)
1 | SIVmac239 Env (envelope glycoprotein, gp120): S204G (in SIVmac239 K180S) | no change | decreases |  | 
2 | SIVmac239 Env (envelope glycoprotein, gp120 V2 apex): T173I (in SIVmac239 K180S) |  |  | no change | abolishes
